According to the RNAGym collection of RNA variant scans (doi:10.1093/molbev/msab373):

B1: Azoarcus group I ribozyme (parent)
chain: GUGCCUUGCGCCGGGAAACCACGCAAGGGAUGGUGUCAAAUUCGGCGAAACCUAAGCGCCCGCCCGGGCGUAUGGCAACGCCGAGCCAAGCUUCGGCGCCUGCGCCGAUGAAGGUGUAGAGACUAGACGGCACCCACCUAAGGCAAACGCUAUGGUGAAGGCAUAGUCCAGGGAGUGGCGAAAGUCACACAAACCGG

Variants of: B1
Test: reverse-splicing fitness (ratio to wild type); higher = more active; in vitro selection; Mg2+ level not given
Method in brief: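 An in vitro group I ribozyme library with randomized positions was T7-transcribed and gel-purified. In triplicate, 10 pmol RNA in EPPS pH 7.5 was reacted with 50 pmoles of a 30-nt RNA substrate for 1 h at 37 °C across several added MgCl2 levels (1–48 mM), then stopped with EDTA. Products were reverse transcribed from a substrate-complementary primer, PCR-amplified and sequenced (HiSeq 4000). Fitness is a variant's read proportion after selection over that before, normalised to wild type.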
In the case of C82A A111G A120G A145U C150G C169G U176A, the reverse-splicing fitness is reported as 0.00739.
C82A A111G A120G A145U C150G C169G U176G showed a reverse-splicing fitness of 0.00446.
With C82A A111G A120G A145C C150U C169A U176G the reverse-splicing fitness was 0.00561.
Work on C82A A111G A120G A145C C150U C169A U176C yielded a reverse-splicing fitness of 0.00635.
With C82A A111G A120G A145C C150U C169A U176A the reverse-splicing fitness was 0.0114.
With C82A A111G A120G C150G C169G U176C the reverse-splicing fitness was 0.00515.
In the case of C82A A111G A120G C150G C169G U176A, the reverse-splicing fitness is reported as 0.00689.
Variant C82A A111G A120G C150G C169G U176G has a reverse-splicing fitness of 0.00489.
With C82A A111G A120G A145G C150U C169U U176G the reverse-splicing fitness was 0.00632.
In the case of C82A A111G A120G A145G C150U C169U U176C, the reverse-splicing fitness is reported as 0.0165.
With C82A A111G A120G A145G C150U C169U U176A the reverse-splicing fitness was 0.0182.
C82A A111G A120G A145U C169A U176G gave a reverse-splicing fitness of 0.0046.
Work on C82A A111G A120G A145U C169A U176A yielded a reverse-splicing fitness of 0.0117.
Work on C82A A111G A120G A145U C169A U176C yielded a reverse-splicing fitness of 0.0121.
With C82A A111G A120C C150G C169G U176G the reverse-splicing fitness was 0.00561.
C82A A111G A120C C150G C169G U176A gave a reverse-splicing fitness of 0.00731.
C82A A111G A120C C150G C169G U176C showed a reverse-splicing fitness of 0.00485.
C82A A111G A120C C169G U176G showed a reverse-splicing fitness of 0.00548.
C82A A111G A120C C169G U176C gave a reverse-splicing fitness of 0.0237.
Variant C82A A111G A120C C169G U176A has a reverse-splicing fitness of 0.0206.
C82A A111G A120G A145C showed a reverse-splicing fitness of 0.0136.
For C82A A111G A120G A145G, the reverse-splicing fitness was 0.0165.
With C82A A111G A120G A145U the reverse-splicing fitness was 0.015.
For C82A A111G A120G A145U U176C, the reverse-splicing fitness was 0.0167.
In the case of C82A A111G A120G A145U U176A, the reverse-splicing fitness is reported as 0.0131.
With C82A A111G A120G A145U U176G the reverse-splicing fitness was 0.00583.
Variant C82A A111G A120G A145G C150A U176C has a reverse-splicing fitness of 0.0203.
In the case of C82A A111G A120G A145G C150A U176G, the reverse-splicing fitness is reported as 0.00899.
For C82A A111G A120G A145G C150A U176A, the reverse-splicing fitness was 0.0103.
In the case of C82A A111G A120C C150A C169U U176G, the reverse-splicing fitness is reported as 0.00938.
Variant C82A A111G A120C C150A C169U U176A has a reverse-splicing fitness of 0.0162.
With C82A A111G A120C C150A C169U U176C the reverse-splicing fitness was 0.0133.
C82A A111G A120G C150A U176G gave a reverse-splicing fitness of 0.00961.
For C82A A111G A120G C150A U176C, the reverse-splicing fitness was 0.0186.
C82A A111G A120G C150A U176A gave a reverse-splicing fitness of 0.0129.
C82A A111G A120G A145U C150A C169G U176G gave a reverse-splicing fitness of 0.00478.
C82A A111G A120G A145U C150A C169G U176C gave a reverse-splicing fitness of 0.0169.
For C82A A111G A120G A145U C150A C169G U176A, the reverse-splicing fitness was 0.0145.
For C82A A111G A120G A145G C150G C169A U176C, the reverse-splicing fitness was 0.0131.
With C82A A111G A120G A145G C150G C169A U176G the reverse-splicing fitness was 0.00875.
C82A A111G A120G A145G C150G C169A U176A showed a reverse-splicing fitness of 0.0139.
C82A A111G A120C C150A C169U showed a reverse-splicing fitness of 0.011.
In the case of C82A A111G A120C C150A C169A, the reverse-splicing fitness is reported as 0.0113.
Variant C82A A111G A120C C150A C169G has a reverse-splicing fitness of 0.00973.
C82A A111G A120G A145U C150U C169U showed a reverse-splicing fitness of 0.00852.
C82A A111G A120G A145U C150U C169A showed a reverse-splicing fitness of 0.0103.
For C82A A111G A120G A145U C150U C169G, the reverse-splicing fitness was 0.0104.
With C82A A111G A120G C150G U176G the reverse-splicing fitness was 0.00346.
With C82A A111G A120G C150G U176A the reverse-splicing fitness was 0.0058.
Work on C82A A111G A120G C150G U176C yielded a reverse-splicing fitness of 0.00974.
Variant C82A A111G A120C A145U U176A has a reverse-splicing fitness of 0.0171.
Variant C82A A111G A120C A145U U176C has a reverse-splicing fitness of 0.0247.
For C82A A111G A120C A145U U176G, the reverse-splicing fitness was 0.00629.
C82A A111G A120G A145G C150G C169U U176C showed a reverse-splicing fitness of 0.0133.
For C82A A111G A120G A145G C150G C169U U176G, the reverse-splicing fitness was 0.00793.
In the case of C82A A111G A120G A145G C150G C169U U176A, the reverse-splicing fitness is reported as 0.0118.
C82A A111G A120C C150U C169U U176G showed a reverse-splicing fitness of 0.00647.
With C82A A111G A120C C150U C169U U176A the reverse-splicing fitness was 0.014.
Work on C82A A111G A120C C150U C169U U176C yielded a reverse-splicing fitness of 0.0125.
C82A A111G A120G A145G U176A gave a reverse-splicing fitness of 0.0128.
With C82A A111G A120G A145G U176C the reverse-splicing fitness was 0.0205.
Work on C82A A111G A120G A145G U176G yielded a reverse-splicing fitness of 0.00638.
With C82A A111G A120G C169U U176A the reverse-splicing fitness was 0.0208.
In the case of C82A A111G A120C A145U C150U U176A, the reverse-splicing fitness is reported as 0.0145.
C82A A111G A120C A145U C150U U176G gave a reverse-splicing fitness of 0.00709.
In the case of C82A A111G A120C A145U C150U U176C, the reverse-splicing fitness is reported as 0.0248.
For C82A A111G A120G A145U C150U, the reverse-splicing fitness was 0.0134.
C82A A111G A120G A145U C150G gave a reverse-splicing fitness of 0.00709.
Variant C82A A111G A120G A145U C150A has a reverse-splicing fitness of 0.00927.
For C82A A111G A120G A145C C150G C169A, the reverse-splicing fitness was 0.00928.
C82A A111G A120G A145C C150G C169U showed a reverse-splicing fitness of 0.00786.
C82A A111G A120G A145C C150G C169G gave a reverse-splicing fitness of 0.00751.
Work on C82A A111G A120C C150A C169A U176C yielded a reverse-splicing fitness of 0.0231.
For C82A A111G A120C C150A C169A U176A, the reverse-splicing fitness was 0.0277.
C82A A111G A120C C150A C169A U176G showed a reverse-splicing fitness of 0.00754.
C82A A111G A120G A145U C150U C169G U176C showed a reverse-splicing fitness of 0.0137.
For C82A A111G A120G A145U C150U C169G U176G, the reverse-splicing fitness was 0.00537.
In the case of C82A A111G A120G A145U C150U C169G U176A, the reverse-splicing fitness is reported as 0.014.
In the case of C82A A111G A120C C150G C169U U176C, the reverse-splicing fitness is reported as 0.0107.
Work on C82A A111G A120C C150G C169U U176A yielded a reverse-splicing fitness of 0.00701.
C82A A111G A120C C150G C169U U176G gave a reverse-splicing fitness of 0.00651.
C82A A111G A120G A145C C169G U176C showed a reverse-splicing fitness of 0.0178.
C82A A111G A120G A145C C169G U176G gave a reverse-splicing fitness of 0.0046.
C82A A111G A120G A145C C169G U176A gave a reverse-splicing fitness of 0.0248.
